# From IntAct's records for PubMed 29039417
# B1: BBSome complex member BBS2 (Homo sapiens), Q9BXC9 (parent)
# chain: MLLPVFTLKLRHKISPRMVAIGRYDGTHPCLAAATQTGKVFIHNPHTRNQHVSASRVFQSPLESDVSLLSINQAVSCLTAGVLNPELGYDALLVGTQTNLLAYDVYNNSDLFYREVADGANAIVLGTLGDISSPLAIIGGNCALQGFNHEGSDLFWTVTGDNVNSLALCDFDGDGKKELLVGSEDFDIRVFKEDEIVAEMTETEIVTSLCPMYGSRFGYALSNGTVGVYDKTSRYWRIKSKNHAMSIHAFDLNSDGVNELITGWSNGKVDARSDRTGEVIFKDNFSSAIAGVVEGDYRMDGHIQLICCSVDGEIRGYLPGTAEMRGNLMDTSAEQDLIRELSQKKQNLLLELRNYEENAKAELASPLNEADGHRGIIPANTRLHTTLSVSLGNETQTAHTELRISTSNDTIIRAVLIFAEGIFTGESHVVHPSIHNLSSSICIPIVPPKDVPVDLHLKAFVGYRSSTQFHVFESTRQLPRFSMYALTSLDPASEPISYVNFTIAERAQRVVVWLGQNFLLPEDTHIQNAPFQVCFTSLRNGGHLHIKIKLSGEITINTDDIDLAGDIIQSMASFFAIEDLQVEADFPVYFEELRKVLVKVDEYHSVHQKLSADMADHSNLIRSLLVGAEDARLMRDMKTMKSRYMELYDLNRDLLNGYKIRCNNHTELLGNLKAVNQAIQRAGRLRVGKPKNQVITACRDAIRSNNINTLFKIMRVGTASS
# partner: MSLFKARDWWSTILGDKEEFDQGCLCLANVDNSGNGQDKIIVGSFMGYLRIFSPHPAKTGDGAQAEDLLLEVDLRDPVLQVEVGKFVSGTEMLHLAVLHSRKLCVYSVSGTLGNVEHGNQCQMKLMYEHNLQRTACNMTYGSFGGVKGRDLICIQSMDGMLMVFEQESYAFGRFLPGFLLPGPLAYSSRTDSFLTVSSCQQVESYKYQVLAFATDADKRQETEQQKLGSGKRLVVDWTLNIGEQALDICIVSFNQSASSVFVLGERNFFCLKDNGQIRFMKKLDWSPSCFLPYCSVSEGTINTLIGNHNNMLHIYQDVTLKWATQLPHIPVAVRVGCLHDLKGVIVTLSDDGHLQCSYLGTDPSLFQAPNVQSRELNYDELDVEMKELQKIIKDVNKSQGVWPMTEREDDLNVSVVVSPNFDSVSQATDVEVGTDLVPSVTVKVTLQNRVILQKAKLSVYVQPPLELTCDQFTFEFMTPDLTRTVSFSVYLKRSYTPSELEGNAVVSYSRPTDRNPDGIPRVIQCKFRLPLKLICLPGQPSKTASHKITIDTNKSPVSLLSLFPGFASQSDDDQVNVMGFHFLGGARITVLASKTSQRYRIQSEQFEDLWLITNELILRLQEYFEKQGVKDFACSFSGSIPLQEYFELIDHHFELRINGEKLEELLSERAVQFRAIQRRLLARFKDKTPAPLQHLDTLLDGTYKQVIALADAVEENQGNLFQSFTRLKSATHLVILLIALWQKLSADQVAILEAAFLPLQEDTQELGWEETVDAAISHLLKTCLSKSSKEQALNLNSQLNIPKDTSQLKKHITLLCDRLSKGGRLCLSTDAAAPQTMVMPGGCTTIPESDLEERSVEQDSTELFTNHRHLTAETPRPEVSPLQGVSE
# Variants of: B1
# Conditions: with pthb1_human BBS9, Q3SYG4
row,Variant,effect of a mutation on the interaction
1,I503E,with no effect
2,I503K,with no effect
3,A504E,with no effect
4,A504K,with no effect
5,E505A,with no effect
6,E505K,with no effect
7,R506A,with no effect
8,R506E,with no effect
9,R506K,with no effect
10,A507E,with no effect
11,A507K,with no effect
12,Q508A,disrupting interaction strength
13,Q508E,with no effect
14,Q508K,with no effect
15,R509A,with no effect
16,R509E,with no effect
17,R509K,with no effect
18,V510A,with no effect
19,V510E,with no effect
20,V510K,with no effect
21,V511A,with no effect
22,V511E,with no effect
23,V511K,with no effect
24,V512A,with no effect
25,V512E,with no effect

row,Variant,effect of a mutation on the interaction
1,V512K,with no effect
2,W513A,disrupting interaction strength
3,W513K,disrupting interaction strength
4,L514A,with no effect
5,L514E,disrupting interaction strength
6,L514K,disrupting interaction strength
7,G515A,with no effect
8,G515C,disrupting interaction strength
9,G515E,with no effect
10,G515K,with no effect
11,G515R,disrupting interaction strength
12,Q516A,with no effect
13,Q516E,with no effect
14,Q516K,with no effect
15,N517A,with no effect
16,N517E,with no effect
17,N517K,with no effect
18,N517L,disrupting interaction strength
19,F518A,with no effect
20,F518E,disrupting interaction strength
21,F518K,disrupting interaction strength
22,F518L,disrupting interaction strength
23,L519A,with no effect
24,L519E,with no effect
25,L519K,with no effect

row,Variant,effect of a mutation on the interaction
1,L520A,with no effect
2,L520E,with no effect
3,L520K,with no effect
4,P521A,with no effect
5,P521E,with no effect
6,P521K,with no effect
7,E522A,with no effect
8,E522K,with no effect
9,D523A,with no effect
10,D523E,with no effect
11,D523K,with no effect
12,T524A,with no effect
13,T524E,with no effect
14,T524K,with no effect
15,H525A,with no effect
16,H525E,with no effect
17,H525K,with no effect
18,I526A,with no effect
19,I526E,with no effect
20,I526K,with no effect
21,Q527A,with no effect
22,Q527E,with no effect
23,Q527K,with no effect
24,N528A,with no effect
25,N528E,with no effect

row,Variant,effect of a mutation on the interaction
1,N528K,with no effect
2,A529E,with no effect
3,A529K,with no effect
4,P530A,with no effect
5,P530E,with no effect
6,P530K,with no effect
7,F531A,with no effect
8,F531E,with no effect
9,F531K,with no effect
10,Q532A,with no effect
11,Q532E,with no effect
12,Q532K,with no effect
13,V533A,with no effect
14,V533E,disrupting interaction strength
15,V533K,with no effect
16,C534A,with no effect
17,C534E,with no effect
18,C534K,with no effect
19,F535A,with no effect
20,F535E,disrupting interaction strength
21,F535K,disrupting interaction strength
22,T536A,with no effect
23,T536E,with no effect
24,T536K,with no effect
25,S537A,with no effect

row,Variant,effect of a mutation on the interaction
1,S537E,with no effect
2,S537F,disrupting interaction strength
3,S537K,with no effect
4,L538A,with no effect
5,L538E,with no effect
6,L538K,with no effect
7,R539A,with no effect
8,R539E,with no effect
9,R539K,with no effect
10,N540A,disrupting interaction strength
11,N540E,with no effect
12,N540K,with no effect
13,G541A,with no effect
14,G541E,with no effect
15,G541K,with no effect
16,G542A,with no effect
17,G542E,with no effect
18,G542K,with no effect
19,H543A,with no effect
20,H543E,with no effect
21,H543K,with no effect
22,L544A,disrupting interaction strength
23,L544E,disrupting interaction strength
24,L544K,with no effect
25,L544S,disrupting interaction strength

row,Variant,effect of a mutation on the interaction
1,H545A,with no effect
2,H545E,with no effect
3,H545K,with no effect
4,I546A,with no effect
5,I546E,disrupting interaction strength
6,I546K,with no effect
7,K547A,with no effect
8,K547E,with no effect
9,I548A,with no effect
10,I548E,with no effect
11,I548K,with no effect
12,K549A,with no effect
13,K549E,with no effect
14,L550A,with no effect
15,L550E,with no effect
16,L550K,with no effect
17,S551A,with no effect
18,S551E,with no effect
19,S551K,with no effect
20,G552A,with no effect
21,G552E,disrupting interaction strength
22,G552K,with no effect
23,E553A,with no effect
24,E553K,with no effect
25,I554A,with no effect

row,Variant,effect of a mutation on the interaction
1,I554E,with no effect
2,I554G,disrupting interaction strength
3,I554K,with no effect
4,T555A,with no effect
5,T555E,with no effect
6,T555H,disrupting interaction strength
7,T555K,with no effect
8,T555P,disrupting interaction strength
9,I556A,with no effect
10,I556E,with no effect
11,I556K,with no effect
12,N557A,with no effect
13,N557E,with no effect
14,N557K,with no effect
15,T558A,with no effect
16,T558E,with no effect
17,T558K,with no effect
18,D559A,with no effect
19,D559E,with no effect
20,D559K,with no effect
21,D560A,disrupting interaction strength
22,D560E,with no effect
23,D560K,with no effect
24,I561A,with no effect
25,I561E,with no effect
